# Results: patent publication US20230117205A1, “B7-H4 ANTIBODY-DRUG CONJUGATES FOR THE TREATMENT OF CANCER” (SEAGEN INC., priority 2021, published 2023)
# How the values were obtained:
# [1] = tested on: MDA-MB-468 xenograft tumors; assay: RNAseq of treated MDA-MB-468 xenograft tumors; type: in vivo, NSG mice; details: single 3 mg/kg dose; compared to vehicle control
# Method: Specifically, female NSG mice were implanted with 1×10^6 MDA-MB-468 cells in 25% Matrigel H C subcutaneously. Once tumor volumes reached ˜250-300 mm^3, mice were randomized into treatment groups of 6 mice each and treated with a single 3 mg/kg dose of ADC or mAb, or vehicle control (20 mM Histidine buffer, pH 6.0) injected intraperitoneally (i.p.). Stock concentrations of ADC were diluted to desired concentration with 20 mM Histidine buffer, pH 6.0 or and stock concentration of mAb were diluted to desired concentration with 0.01% Tween20 in PBS. Twenty-four hours prior to dosing, each animal was treated with 10 mg/kg hIVIG. One week following treatment, tumors were harvested, cut in half, and processed for RNAseq (frozen at −80° C.) or formalin-fixed and paraffin-embedded for immunohistochemical (IHC) analysis.
# For RNAseq, RNA was extracted from tumors and library preparation for […] sequencing was performed using PolyA selection. RNA was sequenced using the Illumina HiSeq platform 2×150 bp configuration. […] Adaptors were trimmed using cutadapt version 1.16, reads were aligned to a composite (GRCh38(h38)/GRCm38(mm10)) genome using STAR version 2.5.2. Transcripts and genes were quantitated via RSEM version 1.2.31. Quantitative and statistical differences were determined between groups of samples using DESeq2 version 1.28.1. […]
# [2] = target: T1, FcγRIIa (Homo sapiens, UniProt P12318); assay: FcγR Jurkat NFAT-luciferase reporter cell assay with SKBR3 target cells; type: cell-based
# T1 construct: expressed in transfected cells; host or cells: Jurkat (NFAT-luciferase reporter)
# T1 sequence (P12318 34-317): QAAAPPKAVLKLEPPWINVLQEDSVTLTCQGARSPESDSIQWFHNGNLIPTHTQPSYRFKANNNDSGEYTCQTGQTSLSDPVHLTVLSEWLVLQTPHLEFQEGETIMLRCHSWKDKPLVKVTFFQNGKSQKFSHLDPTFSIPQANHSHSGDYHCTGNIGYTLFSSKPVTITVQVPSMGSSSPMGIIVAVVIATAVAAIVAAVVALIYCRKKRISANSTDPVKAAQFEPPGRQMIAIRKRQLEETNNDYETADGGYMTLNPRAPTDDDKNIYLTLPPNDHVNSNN
# Method: (§1) Cellular FcγR signaling was measured in a cell-based assay that uses SKBR3 target cells that endogenously express B7-H4 and Jurkat effector cells engineered to express FcγRI, RIIa, or RIII and an NFAT (nuclear factor of activated T cells) driven luciferase reporter gene. […] The luciferase signal is proportional to the degree of FcγR-induced effector cell activation and serves as a surrogate for ADCC (FcγRIII) or ADCP (FcγRI/IIa).
# (§2) Specifically, Jurkat effector cells engineered to express FcγRI, RIIa, or RIII and an NFAT (nuclear factor of activated T cells) driven luciferase reporter gene were thawed and cultured in NFAT reporter cell medium (RPMI 1640 Medium (Gibco #11875-093) supplemented with 4% HyClone™ Fetal Bovine Serum, Super Low IgG (Gibco #A33819-01), 1× Penicillin-Streptomycin (Gibco #15140-122), 1×MEM nonessential amino acids (Gibco #11140-050), 1× L-Glutamine (Gibco #25030-081), 1× Sodium pyruvate (Gibco #11360-070), Hygromycin (Invitrogen #10687), Antibiotic G-418 sulfate solution (Promega #V8091), HEPES (Gibco #15630)). The Jurkat FcγR signaling assay was then performed as follows:
# (§3) The day before the assay, target SKBR3 cells were lifted using Versene (Gibco #15040-066), washed twice with PBS, and plated at 1.2×10^4 cells per well in 90 μL RPMI 1640 containing 10% low IgG FBS and penicillin/streptomycin in black-walled 96-well plates (Corning #3603). The following day, NFAT assay buffer was prepared by adding 4 mL low IgG serum to 100 mL of RPMI 1640, mixed, and warmed to 37° C. NFAT assay buffer was used to resuspend all cells and antibody dilutions. Stock dilution plates (10×) of each antibody were prepared at 100, 30, 10, 3, 1, 0.3, 0.1, 0.03, 0.01, and 0.003 μg/mL. […] Effector cells were counted, washed twice in PBS, and resuspended at 1×10^6 cells/mL in NFAT assay buffer. […] Luminescence was measured for all samples with the Envision 96 CTG protocol (Envision plate reader, PerkinElmer) after mixing on a shaker (covered with foil) for at least 5 minutes. Background (no cells) signal was subtracted from the raw luminescence signal prior to graphing.
# [3] = target: T2, FcγRIII (Homo sapiens, UniProt P08637); assay: as above; type: cell-based
# T2 construct: expressed in transfected cells; host or cells: Jurkat (NFAT-luciferase reporter)
# T2 sequence (P08637 17-254): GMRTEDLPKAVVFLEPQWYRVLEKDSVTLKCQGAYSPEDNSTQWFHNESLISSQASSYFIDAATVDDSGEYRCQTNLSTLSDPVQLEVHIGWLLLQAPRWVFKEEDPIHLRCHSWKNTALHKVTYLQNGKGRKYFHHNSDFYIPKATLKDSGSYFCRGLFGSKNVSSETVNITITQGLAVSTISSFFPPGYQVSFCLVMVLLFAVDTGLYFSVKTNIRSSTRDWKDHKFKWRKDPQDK
# Method: as §1, §2, §3
# [4] = target: T3, FcγRI (Homo sapiens, UniProt P12314); assay: as above; type: cell-based
# T3 construct: expressed in transfected cells; host or cells: Jurkat (NFAT-luciferase reporter)
# T3 sequence (P12314 16-374): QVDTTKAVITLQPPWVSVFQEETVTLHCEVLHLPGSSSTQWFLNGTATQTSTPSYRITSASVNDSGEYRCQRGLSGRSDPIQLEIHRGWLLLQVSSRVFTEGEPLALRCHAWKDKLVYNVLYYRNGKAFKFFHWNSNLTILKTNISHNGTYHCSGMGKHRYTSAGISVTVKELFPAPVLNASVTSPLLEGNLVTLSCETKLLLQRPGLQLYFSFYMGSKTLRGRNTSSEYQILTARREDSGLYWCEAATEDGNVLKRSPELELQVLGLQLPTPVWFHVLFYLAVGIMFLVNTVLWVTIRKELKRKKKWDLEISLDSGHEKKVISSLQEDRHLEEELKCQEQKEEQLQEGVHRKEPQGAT
# Method: as §1, §2, §3
substance,measurement,setting,value
SGN-B7H4V: ADC of fully human IgG1 anti-B7-H4 mAb conjugated to monomethyl auristatin E (MMAE) via a protease-cleavable valine-citrulline linker (vedotin),upregulation of human transcripts encoding cytokines (CXCL10 and CXCL1),[1],2-3 fold
same,FcγRIIa-mediated luciferase activity,[2],not FcγRIIa-mediated luciferase activity
same,FcγRIII-mediated luciferase activity,[3],dose-dependent increase
same,FcγRI-mediated luciferase activity,[4],dose-dependent increase
